Patent publication US7732178B2, “Laccase enzymes and their uses” (AB Enzymes Oy, priority 2004, dated 2010)
Values joined by “and” are separate entries in the source; they are usually repeats but may differ in a detail not shown here. Equal entries are not always repeated.

Key:
[1] = system: wild type Chaetomium (CtL) laccase; format: biochemical, Chaetomium thermophilum; details: pH 5
[2] = Specific activity towards ABTS; format: biochemical; details: 25 mM succinate buffer pH 4.5, 25° C.
Protocol: The activity assay was carried out in accordance with the method developed by Niku-Paavola et al. (1988). The sample was diluted with 0.025 M succinate buffer, pH 4.5. […] The activity is expressed as nano katals.
(§1) Specific activities of the purified T. arenaria and C. thermophilum laccases were determined towards different laccase substrates.

[3] = Specific activity towards di-methoxy-phenol (DMP); format: biochemical; details: 25 mM MES buffer, pH 5.5
Protocol: as §1

[4] = Specific activity towards syringaldazine; format: biochemical; details: 25 mM MES buffer, pH 5.5
Protocol: as §1

[5] = Specific activity towards guaiacol; format: biochemical; details: 25 mM MES buffer, pH 5.5
Protocol: as §1

[6] = Isoelectric focusing (pI); format: physicochemical; details: pH range 3-9
Protocol: Molecular weight of the T. arenaria and C. thermophilum laccases were determined on SDS-PAGE according to Laemmli (1970) The gels used in the SDS-PAGE analysis were ready-made 12% Tris HCl gels (BioRad). Protein bands were visualized by staining with Coomassie Brilliant Blue (R 350; Pharmacia) and compared with molecular weight markers (Prestained Protein Marker Broad Range #7708S; New England BioLabs, Beverly, Mass.). The molecular weight of the both laccases was approximately 80 kDa. The isoelectric point of the laccases was determined with isoelectric focusing within the pH range of 3-9 (Pharmalyte IEF, Pharmacia) on a LKB 2117 Multiphor II Electrophoresis System (LKB Pharmacia, Bromma, Sweden) according to the manufacturer's instructions.
The purified recombinant Thielavia and Chaetomium laccases were characterized in terms of pH optimum, thermal stability, and pI as described in Example 2. The molecular weight was determined by MALDI-TOF mass spectrometry on a Ultraflex™ time-of-flight instrument (BrukerDaltonics, Germany) as previously described (Palonen et al., 2003). The redox-potentials of the T1 coppers of for CtLcc, and TaLcc2 laccases were determined by photometric copper titration in 0.1 M KH2PO4 (pH 6.0) as described by Xu et al. (1996) using the redox titrant couple K3Fe(CN)6/K4Fe(CN)6. The redox potential of TaLcc1 was determined with a combined Pt—AgCl/KCl microelectrode at pH 5.0 according to Sigoillot et al (2004). The characterization results are collected to Table 14.

[7] = Denim bleaching at different pH values; parameters: key to After laccase treatment L* / After laccase treatment b* / Increase of L*: CIE L*a*b* colour coordinates (illuminant D65), Minolta reflectance; details: face side of denim, 30 min, 50° C.
Protocol: (§2) Lee Cooper jeans (MASI Company Oy, Finland) that were desized and treated with neutral ECOSTONE® cellulase were used as test material. Laccase treatments were performed in LP-2 Launder Ometer as follows. About 10 g of denim swatches (15×14 cm) were loaded into 1.2 liter containers containing 200 ml Mc Ilvaine's citrate phosphate buffer pH 5, 6 or 7 and the containers were temperated. Enzyme with or without the mediator (methyl syringate, DeniLite II Assist, Novozymes) was added as laccase activity units. Enzyme was dosed 200 nkat/g and the mediator 10 mg/g on the weight of fabric. […] The Launder Ometer was run at 50° C. for 30 min and after that the temperature in Launder was raised to 80° C. for 10 min. The swatches were carefully rinsed with warm water, dried half-dry in a tumbler and after that air dried.
(§3) The bleaching effect was evaluated by measuring the colour as reflectance values with the Minolta Chromameter CM 1000 (Minolta Co.) using L*a*b* color space coordinates (illuminant D65). The colour from both sides of the swatches was measured before and after the laccase treatment. Each measurement was the average of several measurements.

[8] = Denim bleaching at different temperatures; parameters: key to After laccase treatment L* / After laccase treatment b* / Increase of L*: CIE L*a*b* colour coordinates (illuminant D65), reflectance; details: face side of denim; 30 min, 40° C., pH 6; enzyme 200 nkat/g, mediator 10 mg/g
Protocol: as §2, §3
The test system and denim were as in Example 7, except that the conditions during the laccase and mediator treatment in Launder were 30 min, pH 6 and temperature 30-70° C. (DeniLite II Base also at 80° C.) and the enzyme was inactivated by alkaline treatment instead of raising the temperature in Launder as follows. After removing swatches from the containers they were soaked in warm water containing NaOH (pH 11.5) for 10 min and rinsed carefully with warm water. The swatches were dried half-dry in a tumbler and after that air dried. The bleaching effect was evaluated by measuring the colour as reflectance values as in Example 7.

[9] = Stain removal, grass soiling; parameters: key to Grass L* / Grass a* / Grass b*: CIE L*a*b* color coordinates from reflectance; details: for Grass L* / Grass a* / Grass b*: 60 min, pH 6
Protocol: (§4) Laccases CtLcc1, TaLcc2, TaLcc4 and Denilite II Base (Example 7) were tested for their ability to remove stains. The following artificially soiled test cloths were used: grass soiling (Art.164, EMPA Testmaterialen, Germany), tea soiling (Art. 167, EMPA Testmaterialen, Germany). The fabric was cut in 5.8×5.8 cm swatches. Laccase treatments were performed in LP-2 Launder Ometer as follows. About 5 g of soiled fabrics were loaded into 1.2 liter containers containing 150 ml Mc Ilvaine's citrate phosphate buffer pH 6 and the containers were temperated. Enzyme with or without the mediator (methyl syringate, DeniLite II Assist, Novozymes) was added as laccase activity units (Example 7). Enzyme was dosed 200 nkat/g and the mediator 10 mg/g on the weight of fabric, except at 40° C. dosages of 20 nkat/g and 2 mg/g were also used. The Launder Ometer was run at 40, 50 or 60° C. and pH 6 for 60 min. After that the swatches were carefully rinsed under running water and in shake flasks containing warm water and dried in the air.
(§5) The stain removal effect was evaluated by measuring the colour as reflectance values using L*a*b* color space coordinates (Example 7). The colour of the swatches was measured before and after the laccase treatment.

[10] = Stain removal, tea soiling; parameters: key to Tea L* / Tea a* / Tea b*: CIE L*a*b* color coordinates from reflectance; details: 60 min, pH 6
Protocol: as §4, §5

[11] = pH 5, enzyme 200 nkat/g without the mediator, or mediator 10 mg/g alone
[12] = pH 5, enzyme 200 nkat/g, mediator 10 mg/g
[13] = pH 6, enzyme 200 nkat/g without the mediator, or mediator 10 mg/g alone
[14] = pH 6, enzyme 200 nkat/g, mediator 10 mg/g
[15] = pH 7, enzyme 200 nkat/g without the mediator, or mediator 10 mg/g alone
[16] = pH 7, enzyme 200 nkat/g, mediator 10 mg/g
[17] = 40° C., enzyme 20 nkat/g + mediator 2 mg/g (Mediator only: 0 nkat/g)
[18] = 40° C., enzyme 200 nkat/g + mediator 10 mg/g (Mediator only: 0 nkat/g)
[19] = 40° C., enzyme 200 nkat/g, mediator 0 mg/g
[20] = 50° C., enzyme 200 nkat/g + mediator 10 mg/g (Mediator only: 0 nkat/g)

[F-].[Na+] [NaF]
Inhibition (%) CtL [1]: 40% and 70%

B1: TaLcc4: Thielavia arenaria ALKO 4197 laccase, SEQ ID NO: 45, produced in Trichoderma reesei (protein)
chain: MISRLLFTSSFTATLASALPGLLYAPHSSALLARSSCSGNTASTRSQWCDYSIDTDYTTEPVDTGVTREYWLELTDVTVSPDGVSRSAMAVNGSIPGPTIFADWGDTVVVHVTNSLSTSLNGTSIHWHGIRQNYTNQNDGVASITQCPLAVGESTTYTWKATQYGSSWYHSHFSLQAWEGVFGGIIINGPSTANYDEDLGMLFLNDWDHQTVDELYSSAETSGPPTLANGLINGTNVYGEDGDSSQTGTRLAVSFTSGTSYRMRLVNAAVDTHWKFSIGNHTMTVMAADLVPIEPYETTVLTIGMGQRYDIVVTADQADVADNFWMRAIPQSACSDNDSADNIRGIVYYGDSPGTPSTTGYDFEDACDDETANITPYISKTVSSAEWNDLETASVSRNSAGLFKWYLNSTTMLVDWAKPTLEMVTDNVTEYDSDDAIIELNEANQWVYMVVQTTLQVPHPIHLHGHDFFILAQGSGTYDSSTVTLKTDNPPRRDTAMLPSQGYLVMAWETDNPGVWLMHCHIGWHTSEGFALQFIERKSEIASIVSTSTMKDICTKWEEFQEEYSIEQEDSGV
modifications: Thielavia arenaria ALKO4197; (1)..(573) Deduced amino acid sequence of Thielavia arenaria ALKO4197 TaLcc4
Specific activity on ABTS [2]: 1000 nkat/mg | Specific activity on DMP [3]: 110 nkat/mg | Specific activity on syringaldazin [4]: 52 nkat/mg | Specific activity on guaiacol [5]: 5 nkat/mg | pI [6]: 3.0 | After laccase treatment L* [7, 11]: 29.40 | After laccase treatment b* [7, 11]: −18.70 | Increase of L* [7, 11]: −0.04 | After laccase treatment L* [7, 12]: 29.17 | After laccase treatment b* [7, 12]: −18.47 | Increase of L* [7, 12]: 1.01 | After laccase treatment L* [7, 13]: 27.68 | After laccase treatment b* [7, 13]: −18.76 | Increase of L* [7, 13]: 0.24 | After laccase treatment L* [7, 14]: 29.55 | After laccase treatment b* [7, 14]: −18.11 | Increase of L* [7, 14]: 1.35 | After laccase treatment L* [7, 15]: 29.29 | After laccase treatment b* [7, 15]: −18.89 | Increase of L* [7, 15]: 0.50 | After laccase treatment L* [7, 16]: 28.31 | After laccase treatment b* [7, 16]: −18.33 | Increase of L* [7, 16]: 0.47 | After laccase treatment L* [8]: 29.23 | After laccase treatment b* [8]: −18.44 | Increase of L* [8]: 0.12 | greenness reduced (grass) ([9]; 50° C.): ca. 2 units | Grass L* [9, 17]: 78.53 | Grass a* [9, 17]: −6.07 | Grass b* [9, 17]: 19.33 | Grass L* [9, 18]: 78.94 | Grass a* [9, 18]: −3.77 | Grass b* [9, 18]: 16.77 | Grass L* [9, 19]: 79.84 | Grass a* [9, 19]: −4.98 | Grass b* [9, 19]: 17.62 | Grass L* [9, 20]: 78.62 | Grass a* [9, 20]: −4.00 | Grass b* [9, 20]: 17.16 | Tea L* [10, 17]: 75.09 | Tea a* [10, 17]: 5.73 | Tea b* [10, 17]: 22.08 | Tea L* [10, 18]: 74.56 | Tea a* [10, 18]: 5.58 | Tea b* [10, 18]: 23.55 | Tea L* [10, 19]: 76.74 | Tea a* [10, 19]: 5.05 | Tea b* [10, 19]: 21.67 | Tea L* [10, 20]: 75.13 | Tea a* [10, 20]: 5.19 | Tea b* [10, 20]: 22.44
